Publication PMC12102759

B1: TET3 peptide 458-473 (Methylcytosine dioxygenase TET3), 16-mer library wild type / NSP3 SUD-M (ORF1ab Nsp3c SUD-M, residues 1356-1493) (parent)
chain 1: DPMAELEQLLGSASDY
chain 2: LPSIISNEKQEILGTVSWNLREMLAHAEETRKLMPVCVETKAIVSTIQRKYKGIKIQEGVVDYGARFYFYTSKTTVASLINTLNDLNETLVTMPLGYVTHGLNLEEAARYMRSLKVPATVSVSSPDAVTAYNGYLTSS
B2: NCOA2 peptide 1073-1088 (Nuclear receptor coactivator 2), 16-mer library wild type / NSP3 UBl1 (ORF1ab Nsp3a Ub1, residues 819-925) (parent)
chain 1: PSDEGALLDQLYLALR
chain 2: APTKVTFGDDTVIEVQGYKSVNITFELDERIDKVLNEKCSAYTVELGTEVNEFACVVADAVIKTLQPVSELLTPLGIDLDEWSMATYYLFDESGEFKLASHMYCSFY

Variants of: B1
Details: with NSP3 SUD-M (ORF1ab Nsp3c SUD-M, residues 1356-1493); bait immobilised on MaxiSorp plates (10 µg), library pre-cleared on GST, 2 h binding at 4 °C, five washes; one round per day, days 1-4; value from days 2 and 3; keep out of graded; scale: average fractional NGS count over selection days 2 and 3

Row | Variant | screen value
1 | chain 1 DPMAELEQLLHSASDY | 0
2 | chain 1 DPMAELEQLLISASDY | 0
3 | chain 1 DPMAELEQLLSSASDY | 0
4 | chain 1 DPMAELEQLLWSASDY | 0
5 | chain 1 DPMAEKEQLLGSASDY | 0
6 | chain 1 DPMAEMEQLLGSASDY | 0
7 | chain 1 DPMAEREQLLGSASDY | 0
8 | chain 1 DPMAESEQLLGSASDY | 0
9 | chain 1 DPMAEWEQLLGSASDY | 0
10 | chain 1 DPMAELEQALGSASDY | 0
11 | chain 1 DPMAELEQNLGSASDY | 0
12 | chain 1 DPMAELEQTLGSASDY | 0
13 | chain 1 DPMAELEQYLGSASDY | 0
14 | chain 1 DPMAELEQLPGSASDY | 0
15 | chain 1 DPMAELEQLQGSASDY | 0
16 | chain 1 DPMAELEQLRGSASDY | 0
17 | chain 1 DPMAELEQLTGSASDY | 0
18 | chain 1 DPNAELEQLLGSASDY | 0
19 | chain 1 DPQAELEQLLGSASDY | 0
20 | chain 1 DPSAELEQLLGSASDY | 0
21 | chain 1 DPTAELEQLLGSASDY | 0
22 | chain 1 DAMAELEQLLGSASDY | 0

Row | Variant | screen value
23 | chain 1 DDMAELEQLLGSASDY | 0
24 | chain 1 DHMAELEQLLGSASDY | 0
25 | chain 1 DRMAELEQLLGSASDY | 0
26 | chain 1 DWMAELEQLLGSASDY | 0
27 | chain 1 DPMAELEHLLGSASDY | 0
28 | chain 1 DPMAELEKLLGSASDY | 0
29 | chain 1 DPMAELEMLLGSASDY | 0
30 | chain 1 DPMAELEPLLGSASDY | 0
31 | chain 1 DPMAELERLLGSASDY | 0
32 | chain 1 DPMAELESLLGSASDY | 0
33 | chain 1 DPMAELETLLGSASDY | 0
34 | chain 1 DPMAELEQLLGEASDY | 0
35 | chain 1 DPMAELEQLLGGASDY | 0
36 | chain 1 DPMAELEQLLGIASDY | 0
37 | chain 1 DPMAELEQLLGKASDY | 0
38 | chain 1 DPMAELEQLLGQASDY | 0
39 | chain 1 DPMAELEQLLGRASDY | 0
40 | chain 1 DPMAELEQLLGSAFDY | 0
41 | chain 1 DPMAELEQLLGSAIDY | 0
42 | chain 1 DPMAELEQLLGSAWDY | 0
43 | chain 1 DPMAELEQLLGSASDA | 0
44 | chain 1 DPMAELEQLLGSASDH | 0

Variants of: B2
Details: with NSP3 UBl1 (ORF1ab Nsp3a Ub1, residues 819-925); bait immobilised on MaxiSorp plates (10 µg), library pre-cleared on GST, 2 h binding at 4 °C, five washes; one round per day, days 1-4; value from days 2 and 3; keep out of graded; scale: average fractional NGS count over selection days 2 and 3

Row | Variant | screen value
45 | chain 1 PSDEGFLLDQLYLALR | 1.11e-05
46 | chain 1 PSDEGKLLDQLYLALR | 0
47 | chain 1 PSDEGLLLDQLYLALR | 2.33e-05
48 | chain 1 PSDEGMLLDQLYLALR | 1.23e-05
49 | chain 1 PSDEGRLLDQLYLALR | 1.8e-05
50 | chain 1 PSDEGALLDQLYLDLR | 0
51 | chain 1 PSDEGALLDQLYLILR | 0
52 | chain 1 PSDEGALLDQLYLQLR | 0
53 | chain 1 PSDEGALLDQLYLRLR | 6.24e-06
54 | chain 1 PSDEGALLDQLYLYLR | 0
55 | chain 1 PSEEGALLDQLYLALR | 7.04e-06
56 | chain 1 PSNEGALLDQLYLALR | 1.14e-05
57 | chain 1 PSDEGALLEQLYLALR | 2.36e-05
58 | chain 1 PSDEGALLPQLYLALR | 0.000642
59 | chain 1 PSDEGALLSQLYLALR | 1.09e-05
60 | chain 1 PSDEGALLTQLYLALR | 7.34e-06
61 | chain 1 PSDFGALLDQLYLALR | 0
62 | chain 1 PSDPGALLDQLYLALR | 0
63 | chain 1 PSDEAALLDQLYLALR | 5.46e-06
64 | chain 1 PSDEIALLDQLYLALR | 4.53e-05
65 | chain 1 PSDENALLDQLYLALR | 0
66 | chain 1 PSDESALLDQLYLALR | 1.04e-05
67 | chain 1 PSDETALLDQLYLALR | 0
68 | chain 1 PSDEGAQLDQLYLALR | 0
69 | chain 1 PSDEGASLDQLYLALR | 0

Row | Variant | screen value
70 | chain 1 PSDEGATLDQLYLALR | 0
71 | chain 1 PSDEGALADQLYLALR | 0
72 | chain 1 PSDEGALEDQLYLALR | 0
73 | chain 1 PSDEGALHDQLYLALR | 0
74 | chain 1 PSDEGALKDQLYLALR | 0
75 | chain 1 PSDEGALNDQLYLALR | 0
76 | chain 1 PSDEGALQDQLYLALR | 0
77 | chain 1 PSDEGALSDQLYLALR | 0
78 | chain 1 PSDEGALLDQAYLALR | 0
79 | chain 1 PSDEGALLDQDYLALR | 0
80 | chain 1 PSDEGALLDQIYLALR | 0.000119
81 | chain 1 PSDEGALLDQKYLALR | 0
82 | chain 1 PSDEGALLDQPYLALR | 0
83 | chain 1 PSDEGALLDQRYLALR | 0
84 | chain 1 PSDEGALLDQVYLALR | 9.51e-06
85 | chain 1 PSDEGALLDQYYLALR | 0
86 | chain 1 PSDEGALLDQLYEALR | 0
87 | chain 1 PSDEGALLDQLYSALR | 0
88 | chain 1 PSDEGALLDQLYLAIR | 7.04e-06
89 | chain 1 PSDEGALLDQLYLANR | 0
90 | chain 1 PSDEGALLDALYLALR | 0
91 | chain 1 PSDEGALLDLLYLALR | 0
92 | chain 1 PSDEGALLDMLYLALR | 3.19e-06
93 | chain 1 PSDEGALLDWLYLALR | 0
94 | chain 1 PSDEGALLDQLYLALF | 0.000746
